Measurements reported in article PMC3864954.

Key:
Experiment in all cases: ELISA; APP fragment (12.2 nM, 50 µL/well) plated at 4°C overnight; p75^NTR ECD-Fc or IgG-Fc added at the indicated concentrations for 2 h at room temperature; detected by anti-human IgG-Fc; EC50 from sigmoid dose-response curve
[1] = target: C-sAPPα (sAPPα 304–612), recombinant, His-tagged (UniProt P05067)
[2] = target: sAPPβ, recombinant, His-tagged
[3] = target: Soluble β-amyloid Precursor Protein Alpha (sAPPα), recombinant, His-tagged (UniProt P05067)

EC50 [1]: 150 nM | EC50 [2]: 120 nM | EC50 [3]: 90 nM
Substance: recombinant p75^NTR extracellular domain fused to human Fc (p75^NTR ECD-Fc) chimera protein (from UniProt P08138 29-250) (Fc fusion)
